# Measurements reported in PMC9475553, “SHF Acts as a Novel Tumor Suppressor in Glioblastoma Multiforme by Disrupting STAT3 Dimerization” (Advanced Science, 2022).
# Experiments:
# immobilized STAT3 = immobilized STAT3 (Homo sapiens, UniProt P40763); test: Static adsorption equilibrium assay, immobilized STAT3; format: binding
# Description: Considering that the SH2 domain predominantly represents the inhibition of SHF on STAT3 dimerization and activity, we speculated that this domain may be an optional target for GBM suppression. To this end, we analyzed the mechanical interaction of SHF and STAT3. The structures of human SHF (aa265‐421) and STAT3 (aa130‐715). both of which spanned their respective SH2 domain. were simulated by Swiss‐Model server (https://swissmodel.expasy.org/). To simulate the interaction of SHF and STAT3, Discovery studio 2018 was employed to complete protein‐protein docking using ZDOCK as an initial stage. A rigid body molecular docking algorithm utilizing a fast Fourier transform (FFT) algorithm was used to further improve performance for searching in translational space. All the available structures from PDB were used to calculate the docking poses and the structures obtained were subjected to energy minimization filtration using the smart minimize algorithm (Max steps 200, RMS gradient 0.01). The highest resulting ZDock score was used as the appropriate conformational pose. […] Since these two spots are located closely to one another, the sequence spanning amino acids 388–421 was used as a peptide design master. To obtain a peptide with high internalization efficiency and a strong half‐life, we introduced a palmitic acid at the N‐terminus of the master sequence and amidated the C‐terminus. The designed peptide was named C16. A scrambled peptide containing a scrambled sequence targeting Spot1 was named SC and served as a negative control peptide. […] The static adsorption equilibrium experiment of immobilized STAT3 peptide was used to detect the binding rate of the synthesized peptide with STAT3 (Figure 7C). The concentration of immobilized STAT3 used was 85 nmol g^−1 wet gel. […] Thus, C16 acted as a powerful inhibitor of STAT3 dimerization and associated activity. Next, we determined the implication of C16 in tumor inhibition. […] A concentration of 25 uM was determined to be adequate for use in the subsequent experiments. […] Further, the impact of C16 on tumor propagation was examined in an intracranial xenograft model. U87 cells expressing luciferase were implanted into mouse brains. The mice were injected intraperitoneally (i.p.) with C16 or SC once every 2 days from the third day after cell transplantation. […] To investigate the effect of C16 on cell proliferation, EdU was injected 24 h prior to sacrifice.
# Figure 7 Peptide derived from the STAT3‐binding sites of SHF is an effective GBM suppressive strategy. A) Binding model between SHF and STAT3 using ZDOCK server. […] B) IF staining determined the cell penetrability and nuclear‐localization of C16. U251 cells were incubated with C16 or SC for 2 h and performed IF staining using the indicated antibodies. Bars, 10 µm. C) The statical analysis of adsorption equilibrium assay detecting the binding of C16 and SC with recombinant STAT3. D) Pull‐down assay indicating C16 binds STAT3. GST‐STAT3 was incubated with C16 or SC for 2 h, and the pull‐down assay was performed using Anti‐His magnetic beads. E) IP assay showing the effect of C16 on STAT3 dimerization. 293T cells transfected with indicated vectors were incubated with C16 for 2 h. The relative quantification of STAT3 dimerization was listed. F) IP assay detecting the effect of C16 on the interaction of STAT3 and DNMT1. […] The relative quantification of STAT3/DNMT1 interaction was listed. […] The relative quantification of STAT3/DNMT1 interaction was listed. […]
# U87 cells = test: Cell growth assay (CCK-8), U87; format: cell-based, human; conditions: n=6
# Protocol: Cell growth was quantified using the Cell Counting Kit‐8 Assay Kit (Bimake, Houston, TX). Each experiment was repeated at least six times. For the colony formation assay, 800 cells were seeded into each well of a six‐well plate with soft agar (Agarose; Sigma, St. Louis, MO) and maintained in a medium containing 10% FBS for 14 days. The colonies were fixed with methanol and stained with 0.1% crystal violet; the clones containing at least 50 cells were counted using an inverted microscope.
# Supplementary Fig. 9 C16 inhibits tumor growth and promotes chemosensitivity in vitro.
# B. Colony formation of cells treated with SC or C16 (left) and the accompanying statistical
# analysis (right; n=6, Student’s t-test, **P < 0.01).
# C. Annexin V staining flow cytometry assay of cells simultaneously treated with Dox with SC or
# C16 for 48 h (n=3, Student’s t-test, *P < 0.05, **P < 0.01).
# (1 picture or pasted object on this page, not shown here)
# Sequence of immobilized STAT3 (P40763 whole entry, the tested form may be a part): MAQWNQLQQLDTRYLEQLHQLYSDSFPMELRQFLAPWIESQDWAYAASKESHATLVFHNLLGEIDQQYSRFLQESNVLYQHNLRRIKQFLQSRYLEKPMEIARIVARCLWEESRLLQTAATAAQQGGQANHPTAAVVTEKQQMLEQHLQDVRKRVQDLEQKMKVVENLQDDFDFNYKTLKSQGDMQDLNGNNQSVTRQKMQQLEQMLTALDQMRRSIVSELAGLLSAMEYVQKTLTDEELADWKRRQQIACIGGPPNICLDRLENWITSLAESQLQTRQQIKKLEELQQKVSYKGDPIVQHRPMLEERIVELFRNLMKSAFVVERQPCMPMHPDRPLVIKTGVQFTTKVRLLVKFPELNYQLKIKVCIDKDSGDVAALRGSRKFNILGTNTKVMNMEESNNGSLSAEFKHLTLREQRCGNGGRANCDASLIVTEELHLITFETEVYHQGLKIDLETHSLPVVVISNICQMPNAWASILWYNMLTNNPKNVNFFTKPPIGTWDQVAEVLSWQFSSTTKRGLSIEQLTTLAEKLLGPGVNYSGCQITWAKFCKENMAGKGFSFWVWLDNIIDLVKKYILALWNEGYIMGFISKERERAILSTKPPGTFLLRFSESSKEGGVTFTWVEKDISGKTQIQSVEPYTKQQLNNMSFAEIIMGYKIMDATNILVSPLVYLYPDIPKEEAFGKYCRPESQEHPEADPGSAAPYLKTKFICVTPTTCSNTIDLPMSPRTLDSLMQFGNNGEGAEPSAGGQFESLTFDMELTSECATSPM
substance,measurement,setting,value
"C16: peptide spanning SHF amino acids 388–421, palmitic acid at the N-terminus, amidated C-terminus, 3× His tags added to the C-terminal (PFSSVPEIVHHYASRKLPIKGAEHMSLLYPVAIR; palmitic acid at the N-terminus; amidated C-terminus; left off: 3× His tags, C-terminal, kept)",maximum static adsorption (Qmax),"immobilized STAT3; immobilized STAT3 85 nmol g^−1 wet gel, peptide 2-20 µM in PBS, stirred 12 h, free peptide by NanoDrop absorbance 240 nm, Langmuir isotherm, mean ± SD",86.13 ± 0.18 nmol g^−1 wet gel
same,Kd,"immobilized STAT3; immobilized STAT3 85 nmol g^−1 wet gel, peptide 2-20 µM in PBS, stirred 12 h, free peptide by NanoDrop absorbance 240 nm, Langmuir isotherm, mean ± SD, read-out: equilibrium dissociation constant KD",80 ± 20 nM
same,interaction model (stoichiometry) with STAT3,immobilized STAT3; maximum adsorption compared with actual amount of immobilized STAT3,1:1 interaction model
same,KD of C16 compared with that of the SC peptide,"immobilized STAT3; static adsorption on immobilized STAT3, C16 vs SC",two orders of magnitude lower than that of the SC peptide
same,cell growth inhibition,U87 cells,inhibited cell growth with concentration dependence
